The source of these data is US20110256153A1 (IMMUNOGEN, published 2011).

One may read the EC50 as the midpoint of the concentration-response curve.

In test [1] the target is T1, human CD37 (human, UniProt P11049 1-278).
T1 sequence: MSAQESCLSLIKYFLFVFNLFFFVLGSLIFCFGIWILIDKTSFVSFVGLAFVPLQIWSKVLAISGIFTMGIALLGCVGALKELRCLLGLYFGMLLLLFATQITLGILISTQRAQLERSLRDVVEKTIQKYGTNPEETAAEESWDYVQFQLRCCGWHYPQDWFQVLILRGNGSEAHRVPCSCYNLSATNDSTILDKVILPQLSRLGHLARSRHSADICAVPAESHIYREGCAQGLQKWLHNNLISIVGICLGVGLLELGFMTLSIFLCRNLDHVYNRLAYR
In words: cell-based or functional assay.

Test [2] addresses T1, human CD37. Put plainly: flow cytometry titration on BJAB cells (FIG. 20A); apparent Kd. For orientation: A flow cytometer gives signals particle by particle.
For test [3], the target named is T1, human CD37. Put plainly: competition flow cytometry on BJAB cells; competitor PE-labeled muCD37-3 (1 nM). Here is the method:
Flow cytometry binding assays using BJAB cells and a competitive binding format were used to evaluate binding affinity of chimeric and humanized versions of CD37-3. BJAB cells were incubated with a 1 nM concentration of PE-labeled muCD37-3 antibody and competition was measured by adding varying amounts of muCD37-3, chCD37-3, huCD37-3v1.0 or huCD37-3v1.01. The samples were incubated for 3 hrs at 4° C. Then, the cells were pelleted, washed with FACS buffer and resuspended in 200 μL of PBS containing 1% formaldehyde. Samples were acquired using a FACSCalibur flow cytometer with the HTS multiwell sampler and analyzed using CellQuest Pro (all from BD Biosciences, San Diego, US). The resulting mean PE fluorescence was plotted against the amount of competing antibody used in a semi-log plot. FIG. 9B depicts the dose-response curves generated by non-linear regression for each antibody. The value for the apparent dissociation constant (Kd) of each antibody was calculated using GraphPad Prism v4 (GraphPad software, San Diego, Calif.).

For test [4], the target named is T2, macaque CD37 (macaque, UniProt P11049 1-277 (human entry)).
T2 construct: Expressed on 300-19 cells transfected with pSRa-CD37mac (300-19/CD37mac cells); also called macaca CD37; macaque derived CD37 antigen
T2 chain: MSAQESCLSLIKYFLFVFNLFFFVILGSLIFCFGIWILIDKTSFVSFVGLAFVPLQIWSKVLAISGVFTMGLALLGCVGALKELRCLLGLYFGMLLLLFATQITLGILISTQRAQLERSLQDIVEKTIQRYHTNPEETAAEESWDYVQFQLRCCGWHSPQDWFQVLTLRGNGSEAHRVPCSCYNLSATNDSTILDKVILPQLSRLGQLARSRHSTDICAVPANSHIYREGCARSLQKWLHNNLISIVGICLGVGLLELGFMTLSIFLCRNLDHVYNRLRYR
In words: flow cytometry, 300-19/CD37mac cells. Here is the method: (§1) Binding specificity was tested by flow cytometry using purified antibodies. […] All murine antibodies were incubated for 3 h with either CD37-expressing 300-19 cells or the non-transfected 300-19 cells (1×10⁵ cells per sample) in 100 μL FACS buffer (RPMI-1640 medium supplemented with 2% normal goat serum). Then, the cells were pelleted, washed, and incubated for 1 h with 100 μL of FITC-conjugated goat anti-mouse IgG-antibody (Jackson Laboratory, 6 μg/mL in FACS buffer). The cells were pelleted again, washed with FACS buffer and resuspended in 200 μL of PBS containing 1% formaldehyde. Samples were acquired using a FACSCalibur flow cytometer with the HTS multiwell sampler or a FACS array flow cytometer and analyzed using CellQuest Pro (all from BD Biosciences, San Diego, US).
The murine antibodies muCD37-3, muCD37-12, muCD37-38, […], muCD37-51, muCD37-56 and muCD37-57 were assayed for their ability to bind to 300-19/CD37mac cells expressing macaque CD37. Flow cytometry binding assays were carried out using secondary FITC-conjugated goat-anti-murine or goat-anti-human antibodies, analyzed as described in Example 2. Binding was compared to the previously described anti-CD37 antibody WR17 and the anti-CD37 SMIP TRU-016. […] In contrast, muCD37-3, muCD37-12, the previously described anti-CD37 antibody WR17 and the anti-CD37 SMIP TRU-016 are unable to bind the macaque derived CD37 antigen.

The target in test [5] is T3, hCD37-M45 (human/murine chimera, UniProt P11049 1-281).
T3 construct: stably expressed on 300-19 cells; also called hCD37-M45 variant
T3 chain: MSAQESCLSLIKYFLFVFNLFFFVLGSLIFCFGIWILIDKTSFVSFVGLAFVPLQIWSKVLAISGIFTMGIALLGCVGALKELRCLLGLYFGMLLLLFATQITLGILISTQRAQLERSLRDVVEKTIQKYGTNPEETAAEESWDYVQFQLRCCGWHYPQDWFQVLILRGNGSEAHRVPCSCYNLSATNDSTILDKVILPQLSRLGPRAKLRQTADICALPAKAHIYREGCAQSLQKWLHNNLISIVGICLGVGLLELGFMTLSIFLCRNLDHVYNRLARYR
In words: flow cytometry, 300-19 cells expressing hCD37-M45. Here is the method: as §1
(§2) Binding of various CD37 antibodies to cells expressing human CD37 wildtype and variants was analyzed by flow cytometry using 1.5 μg/mL of each antibody. The isolated antibodies of this invention were compared to commercially available CD37 antibody WR17, as well as the TRU-016 SMIP. […] Likewise, all antibodies tested bound the hCD37-M3 variant (FIG. 18B). In contrast, the isolated antibodies of this invention bound the hCD37-M1 variant, while TRU-016 and WR17 were unable to bind hCD37-M1 variant (FIG. 19A). The CD37-50 and CD37-51 antibodies and TRU-016 were also able to bind the hCD37-M45 variant. […] In contrast, the CD37-3, CD37-12, CD37-38, CD37-56 and CD37-57 antibodies require at least one of the AA residues in the hCD37-M45 variant that were changed to the corresponding murine AA residues for binding to the CD37 antigen.

For test [6], the target named is T1, human CD37. In words: flow cytometry titration on BJAB cells; apparent Kd. The method, then: as §1
The humanized antibodies huCD37-38, huCD37-50, huCD37-51, huCD37-56 and chCD37-57 were assayed for their binding affinity to BJAB cells in comparison to their murine counterparts. Flow cytometry binding assays were carried out using secondary FITC-conjugated goat-anti-murine and -anti-human antibodies, analyzed as described in Example 2 and dose-response curves were generated by non-linear regression for each antibody. The value for the apparent dissociation constant (Kd) of each antibody was calculated using GraphPad Prism v4 (GraphPad software, San Diego, Calif.).

Test [7] deals with T4, hCD37-M1 (human/murine chimera, UniProt P11049 1-281).
T4 construct: stably expressed on 300-19 cells; also called hCD37-M1 variant
T4 chain: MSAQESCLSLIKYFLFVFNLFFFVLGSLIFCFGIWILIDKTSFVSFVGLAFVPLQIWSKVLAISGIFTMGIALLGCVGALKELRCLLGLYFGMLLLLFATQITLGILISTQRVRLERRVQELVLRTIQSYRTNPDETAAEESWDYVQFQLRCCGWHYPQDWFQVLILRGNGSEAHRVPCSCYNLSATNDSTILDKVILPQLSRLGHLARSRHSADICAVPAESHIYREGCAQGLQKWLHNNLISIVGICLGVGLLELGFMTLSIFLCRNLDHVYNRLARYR
In words: flow cytometry, 300-19 cells expressing hCD37-M1, 1.5 µg/mL antibody. The method, then: as §1, §2

Test [8] concerns the target T5, hCD37-M3 (human/murine chimera, UniProt P11049 1-281).
T5 construct: stably expressed on 300-19 cells; also called hCD37-M3 variant
T5 chain: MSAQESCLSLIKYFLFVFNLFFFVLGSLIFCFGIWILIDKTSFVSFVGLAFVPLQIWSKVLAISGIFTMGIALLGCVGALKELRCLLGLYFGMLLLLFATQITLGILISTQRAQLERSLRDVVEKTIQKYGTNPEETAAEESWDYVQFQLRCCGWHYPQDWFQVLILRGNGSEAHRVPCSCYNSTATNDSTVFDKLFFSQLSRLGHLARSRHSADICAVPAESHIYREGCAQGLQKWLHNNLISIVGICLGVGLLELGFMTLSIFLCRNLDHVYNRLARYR
In words: flow cytometry, 300-19 cells expressing hCD37-M3, 1.5 µg/mL antibody. The method, then: as §1, §2

“And” between values parts separate entries of the source, which are not always exact repeats. Equal values may be shown once.

B1: huCD37-3-SMCC-DM1 (antibody, human IgG1, kappa, V domains shown)
VH: QVQVQESGPGLVAPSQTLSITCTVSGFSLTTSGVSWVRQPPGKGLEWLGVIWGDGSTNYHPSLKSRLSIKKDHSKSQVFLKLNSLTAADTATYYCAKGGYSLAHWGQGTLVTVSS
VL: DIQMTQSPSSLSVSVGERVTITCRASENIRSNLAWYQQKPGKSPKLLVNVATNLADGVPSRFSGSGSGTDYSLKINSLQPEDFGTYYCQHYWGTTWTFGQGTKLEIKR
modifications: DM1 attached through SMCC linker; attachment residues not stated; 3.5-4 DM1 per antibody
notes: heavy chain version as for huCD37-3, see its note
B1: in test [1], the “EC50 of in vitro cytotoxicity, BJAB cells” value was 0.041 nM and 0.019 nM; the “EC50 of in vitro cytotoxicity, Daudi cells” value is 0.065 nM and 0.036 nM; the “EC50 of in vitro cytotoxicity, Namalwa cells” value was 0.033 nM; the “EC50 of in vitro cytotoxicity, Raji cells” value is 0.071 nM. Further, in test [1], the “EC50 of in vitro cytotoxicity, Raji-VCR cells” value turned out to be 0.11 nM; the “EC50 of in vitro cytotoxicity, Ramos cells” value amounted to 0.16 nM; the “EC50 of in vitro cytotoxicity, SU-DHL-4 cells” value came out at 0.031 nM; the “EC50 of in vitro cytotoxicity, WST-8 assay, Daudi cells” value stood at 0.067 nM. Also, the “EC50 of in vitro cytotoxicity, WST-8 assay, Granta-519 cells” value in test [1] turned out to be 0.047 nM. In test [2], the Kd is 0.46 nM.

B2: huCD37-3v1.0 (antibody, human IgG1, kappa, V domains shown)
VH: QVQVQESGPGLVAPSQTLSITCTVSGFSLTTSGVSWVRQPPGKGLEWLGVIWGDGSTNYHPSLKSRLSIKKDHSKSQVFLKLNSLTAADTATYYCAKGGYSLAHWGQGTLVTVSS
VL: DIQMTQSPSSLSVSVGERVTITCRASENIRSNLAWYQQKPGKSPKLLVNVATNLADGVPSRFSGSGSGTDYSLKINSLQPEDFGTYYCQHYWGTTWTFGQGTKLEIKR
notes: Resurfaced (humanized) CD37-3, version 1.0
With B2, the midpoint of the response in test [3], the EC50, lay at 1 nM.

B3: huCD37-3v1.01 (antibody, human IgG1, kappa, V domains shown)
VH: QVQVQESGPGLVAPSQTLSITCTVSGFSLTTSGVSWVRQPPGKGLEWLGVIWGDGSTNYHSSLKSRLSIKKDHSKSQVFLKLNSLTAADTATYYCAKGGYSLAHWGQGTLVTVSS
VL: DIQMTQSPSSLSVSVGERVTITCRASENIRSNLAWYQQKPGKSPKLLVNVATNLADGVPSRFSGSGSGTDYSLKINSLQPEDFGTYYCQHYWGTTWTFGQGTKLEIKR
notes: also called huCD37-3v1.1
In the case of B3, a half-maximal effect in test [3] (EC50) was put at 0.6 nM.

B4: muCD37-38 (antibody, mouse IgG1, kappa, V domains shown)
VH: DVQLQESGPDLVKPSQSLSLTCTVTGYSITSGFGWHWIRQFPGNKLEWMAYILYSGGTDYNPSLKSRISITRDTSKNQFFLRLSSVTTEDTATYYCARGYYGYGAWFVYWGQGTLVTVSA
VL: QIVLTQSPAIMSASPGEKVTMTCSASSSVTYMHWYQQKSGTSPKRWIYDTSKLASGVPARFSGGGSGTSYSLTISSMEAEDAATYYCQQWISNPPTFGGGTKLEIKR
notes: Murine hybridoma antibody
Consider B4, for which the binding result in test [4] is listed as “binds”; in test [5], “no binding (tested: 1.5 µg/mL)”; in test [7], “binds”; in test [8], “binds”. In addition, in test [6], the Kd came out at 0.4 nM.

B5: muCD37-56 (antibody, mouse IgG1, kappa, V domains shown)
VH: DVQLQESGPDLVKPSQSLSLTCTVTGYSITSGFAWHWIRQFPGNKLEWMGYIHYSGGTNYNPSLKSRVSITRDTSKNQFFLQLNSVTTEDTATYYCARGYYGFGAWFAYWGQGTLVPVSA
VL: QIVLTQSPAFMSASPGDKVTMTCSASSSVTYMHWYQQKSGTSPKRWIYDTSKLASGVPARFSGGGSGTSYSLTISTMEAEDAATYYCQQWISDPPTFGGGTKLEIKR
notes: Murine hybridoma antibody
Consider B5, for which the binding result in test [4] is given as “binds”; in test [5], “no binding (tested: 1.5 µg/mL)”; in test [7], “binds”; in test [8], “binds”. Further, the Kd in test [6] came to 0.4 nM.

B6: muCD37-57 (antibody, mouse IgG2a, kappa, V domains shown)
VH: DVQLQESGPDLLKPSQSLSLTCTVTGYSITSGFAWHWIRQFPGNKLEWMGYILYSGSTVYSPSLKSRISITRDTSKNQFFLQLNSVTTEDTATYYCARGYYGYGAWFAYWGQGTLVTVSA
VL: QIVLTQSPAIMSASPGEKVTMTCSATSSVTYMHWYQQKSGTSPKRWIYDTSKLASGVPARFSGSGSGTSYSLTISSMEAEDAATYYCQQWSDNPPTFGSGTKLEIKR
notes: Murine hybridoma antibody
In the case of B6, the binding result is “binds” in test [4], “no binding (tested: 1.5 µg/mL)” in test [5], “binds” in test [7] and “binds” in test [8]. In addition, the Kd in test [6] amounted to 1 nM.
